{"source": "paper PMC11212984", "target": "ERGU-1::GFP (C. elegans ERGU-1, Y87G2A.13, with GFP fused to its C-terminus) (C. elegans)", "assay": "SDS-PAGE western blot", "note": "Several values for one entry are separate records, joined by “and”; a condition that tells them apart may be missing. Identical values can stand only once.", "data": [{"substance": "ERGU-1::GFP (C. elegans ERGU-1, Y87G2A.13, with GFP fused to its C-terminus) (natural protein)", "values": [{"measurement": "stoichiometry N", "value": "2 and 4"}]}]}
